The term Kd denotes a measure of binding affinity in units of concentration.

The target in this assay is GST-LOV2GIVe (L) (Avena sativa | , UniProt O49003).

B1: His-Gαi3 (natural protein)
chain: MGCTLSAEDKAAVERSKMIDRNLREDGEKAAKEVKLLLLGAGESGKSTIVKQMKIIHEDGYSEDECKQYKVVVYSNTIQSIIAIIRAMGRLKIDFGEAARADDARQLFVLAGSAEEGVMTSELAGVIKRLWRDGGVQACFSRSREYQLNDSASYYLNDLDRISQTNYIPTQQDVLRTRVKTTGIVETHFTFKELYFKMFDVGGQRSERKKWIHCFEGVTAIIFCVALSDYDLVLAEDEEMNRMHESMKLFDSICNNKWFTDTSIILFLNKKDLFEEKIKRSPLTICYPEYTGSNTYEEAAAYIQCQFEDLNRRKDTKEVYTHFTCATDTKNVQFVFDAVTDVIIKNNLKECGLY
B1 registered a dissociation constant (Kd) of 0.27 µM.

These data come from doi:10.1101/2020.08.17.253781 (2020).
